# T1: ARM domain of HSF2BP (Homo sapiens, UniProt O75031)
# T1 construct: The armadillo domain of HSF2BP, from aa 122 to aa 334; 6xHis-TEV (N, cleaved yes); made in house; host or cells: E. coli BL21 DE3 Rosetta2
# T1 sequence (O75031 122-334): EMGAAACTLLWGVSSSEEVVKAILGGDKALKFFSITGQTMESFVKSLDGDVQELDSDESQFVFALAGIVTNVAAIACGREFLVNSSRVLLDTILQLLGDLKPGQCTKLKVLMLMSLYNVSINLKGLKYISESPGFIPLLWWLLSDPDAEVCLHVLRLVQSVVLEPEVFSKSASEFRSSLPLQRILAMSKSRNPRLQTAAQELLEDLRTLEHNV
# T2: HSF2BP FL (Homo sapiens, UniProt O75031)
# T2 construct: Human full-length HSF2BP WT and R200T were expressed; 6xHis-TEV (N, cleaved yes); made in house; host or cells: E. coli BL21 DE3 Rosetta2
# T2 sequence (O75031 1-334): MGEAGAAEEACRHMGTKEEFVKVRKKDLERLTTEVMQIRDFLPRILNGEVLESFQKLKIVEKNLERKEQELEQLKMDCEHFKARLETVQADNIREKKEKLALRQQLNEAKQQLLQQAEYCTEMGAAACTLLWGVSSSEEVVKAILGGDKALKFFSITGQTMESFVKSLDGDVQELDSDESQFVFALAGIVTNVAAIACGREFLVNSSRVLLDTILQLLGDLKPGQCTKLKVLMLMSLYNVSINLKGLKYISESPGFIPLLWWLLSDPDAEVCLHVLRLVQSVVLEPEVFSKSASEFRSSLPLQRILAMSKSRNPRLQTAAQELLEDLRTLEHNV
# Tests used:
# [1] = target: mouse HSF2BP-GFP (homozygous Hsf2bp-GFP knock-in allele) (mouse (endogenous in mES cells)) (UniProt Q9D4G2); assay: co-IP; anti-GFP nanobody beads on lysates of Hsf2bp^GFP/GFP mES cells with Brca2 wt, ∆12 or ∆12-14 alleles; BRCA2 blotted, fluorescent secondary antibodies; NETT buffer
# [2] = system: H3 fragment (the ARM domain) of HSF2BP; assay: Co-immunoprecipitation of Flag-BRCA2 fragments with GFP-HSF2BP fragment H3; assay type: cell-based, human; conditions: Fig. 1c; HEK293T; comparison with F15 and F9; reviewer's reading of the figure
# Excerpt: (§1) Expression constructs for producing point mutation and truncation variants of HS2BP and BRCA2 in human cells were engineered as described before[16] in the PiggyBac vectors by Gibson assembly. For transient expression into HEK293T cells plasmid DNA was transfected using calcium precipitation method or PEI transfection. For stable integration into HeLa cells, PiggyBac expression vectors were co-lipofected together with PiggyBac transposase plasmid (hyPBase[45]) with Lipofectamine 3000 (Thermo Fisher).
# Cells were washed twice in ice-cold PBS and lysed in situ in NETT buffer (100 mM NaCl, 50 mM Tris pH 7.5, 5 mM EDTA pH 8.0, 0.5% Triton-X100) supplemented immediately before use with protease inhibitor cocktail (Roche) and 0.4 mg/ml Pefabloc (Roche) (NETT++); 450 µl NETT++ buffer was used per 145 mm dish ES cells, 1 ml for HeLa and HEK293T. After 5–10 min, cells were scraped off and collected in 1.5 ml microcentrifuge tubes; lysis was continued for additional 20–30 min on ice, then mixtures were centrifuged (15 min, 4 °C, 14,000 × g) and the supernatant (input) was added to washed anti-GFP beads (Chromotek). […] For quantitative immunoblotting fluorescently labeled secondary antibodies were used: anti-mouse CF680 (Sigma #SAB460199), anti-rabbit CF770 (Sigma #SAB460215); membranes were scanned using Odyssey CLx imaging system (LI-COR).
# GFP-HSF2BP = assay: Co-immunoprecipitation of Flag-BRCA2 variants/fragments with GFP-HSF2BP WT; assay type: cell-based, human; conditions: transient HEK293T, anti-GFP beads, immunoblot
# Excerpt: as §1
# Cells were washed twice in ice-cold PBS and lysed in situ in NETT buffer (100 mM NaCl, 50 mM Tris pH 7.5, 5 mM EDTA pH 8.0, 0.5% Triton-X100) supplemented immediately before use with protease inhibitor cocktail (Roche) and 0.4 mg/ml Pefabloc (Roche) (NETT++); 450 µl NETT++ buffer was used per 145 mm dish ES cells, 1 ml for HeLa and HEK293T. After 5–10 min, cells were scraped off and collected in 1.5 ml microcentrifuge tubes; lysis was continued for additional 20–30 min on ice, then mixtures were centrifuged (15 min, 4 °C, 14,000 × g) and the supernatant (input) was added to washed anti-GFP beads (Chromotek). Beads and lysates were incubated 2–4 h at 4 °C while rotating, washed three times in NETT++ buffer and bound proteins were eluted by boiling in 2x Sample buffer. Immunoblotting was performed following standard procedures with the following antibodies: anti-GFP mAb (Roche, #11814460001), anti-GFP pAb (Abcam #ab290 and Invitrogen #A11122), anti-RAD51[46], anti-BRCA2 mAb Ab1 OP-95 (Millipore #OP95), anti-BRCA2 (Abcam #27976), anti-Flag (M2 antibody, Sigma, F3165 and F1804). For quantitative immunoblotting fluorescently labeled secondary antibodies were used: anti-mouse CF680 (Sigma #SAB460199), anti-rabbit CF770 (Sigma #SAB460215); membranes were scanned using Odyssey CLx imaging system (LI-COR).
# [3] = target: mouse BRCA2-GFP ∆12 (exon 12 deleted) (mouse (endogenous in mES cells)) (UniProt P97929); assay: co-IP; anti-GFP nanobody beads on lysates of mES cells with homozygous Brca2-GFP alleles (full, ∆12, ∆12-14); HSF2BP blotted, fluorescent secondary antibodies; NETT buffer
# Sequence of mouse BRCA2-GFP ∆12 (exon 12 deleted) (mouse (endogenous in mES cells)) (P97929 whole entry, stated change not applied): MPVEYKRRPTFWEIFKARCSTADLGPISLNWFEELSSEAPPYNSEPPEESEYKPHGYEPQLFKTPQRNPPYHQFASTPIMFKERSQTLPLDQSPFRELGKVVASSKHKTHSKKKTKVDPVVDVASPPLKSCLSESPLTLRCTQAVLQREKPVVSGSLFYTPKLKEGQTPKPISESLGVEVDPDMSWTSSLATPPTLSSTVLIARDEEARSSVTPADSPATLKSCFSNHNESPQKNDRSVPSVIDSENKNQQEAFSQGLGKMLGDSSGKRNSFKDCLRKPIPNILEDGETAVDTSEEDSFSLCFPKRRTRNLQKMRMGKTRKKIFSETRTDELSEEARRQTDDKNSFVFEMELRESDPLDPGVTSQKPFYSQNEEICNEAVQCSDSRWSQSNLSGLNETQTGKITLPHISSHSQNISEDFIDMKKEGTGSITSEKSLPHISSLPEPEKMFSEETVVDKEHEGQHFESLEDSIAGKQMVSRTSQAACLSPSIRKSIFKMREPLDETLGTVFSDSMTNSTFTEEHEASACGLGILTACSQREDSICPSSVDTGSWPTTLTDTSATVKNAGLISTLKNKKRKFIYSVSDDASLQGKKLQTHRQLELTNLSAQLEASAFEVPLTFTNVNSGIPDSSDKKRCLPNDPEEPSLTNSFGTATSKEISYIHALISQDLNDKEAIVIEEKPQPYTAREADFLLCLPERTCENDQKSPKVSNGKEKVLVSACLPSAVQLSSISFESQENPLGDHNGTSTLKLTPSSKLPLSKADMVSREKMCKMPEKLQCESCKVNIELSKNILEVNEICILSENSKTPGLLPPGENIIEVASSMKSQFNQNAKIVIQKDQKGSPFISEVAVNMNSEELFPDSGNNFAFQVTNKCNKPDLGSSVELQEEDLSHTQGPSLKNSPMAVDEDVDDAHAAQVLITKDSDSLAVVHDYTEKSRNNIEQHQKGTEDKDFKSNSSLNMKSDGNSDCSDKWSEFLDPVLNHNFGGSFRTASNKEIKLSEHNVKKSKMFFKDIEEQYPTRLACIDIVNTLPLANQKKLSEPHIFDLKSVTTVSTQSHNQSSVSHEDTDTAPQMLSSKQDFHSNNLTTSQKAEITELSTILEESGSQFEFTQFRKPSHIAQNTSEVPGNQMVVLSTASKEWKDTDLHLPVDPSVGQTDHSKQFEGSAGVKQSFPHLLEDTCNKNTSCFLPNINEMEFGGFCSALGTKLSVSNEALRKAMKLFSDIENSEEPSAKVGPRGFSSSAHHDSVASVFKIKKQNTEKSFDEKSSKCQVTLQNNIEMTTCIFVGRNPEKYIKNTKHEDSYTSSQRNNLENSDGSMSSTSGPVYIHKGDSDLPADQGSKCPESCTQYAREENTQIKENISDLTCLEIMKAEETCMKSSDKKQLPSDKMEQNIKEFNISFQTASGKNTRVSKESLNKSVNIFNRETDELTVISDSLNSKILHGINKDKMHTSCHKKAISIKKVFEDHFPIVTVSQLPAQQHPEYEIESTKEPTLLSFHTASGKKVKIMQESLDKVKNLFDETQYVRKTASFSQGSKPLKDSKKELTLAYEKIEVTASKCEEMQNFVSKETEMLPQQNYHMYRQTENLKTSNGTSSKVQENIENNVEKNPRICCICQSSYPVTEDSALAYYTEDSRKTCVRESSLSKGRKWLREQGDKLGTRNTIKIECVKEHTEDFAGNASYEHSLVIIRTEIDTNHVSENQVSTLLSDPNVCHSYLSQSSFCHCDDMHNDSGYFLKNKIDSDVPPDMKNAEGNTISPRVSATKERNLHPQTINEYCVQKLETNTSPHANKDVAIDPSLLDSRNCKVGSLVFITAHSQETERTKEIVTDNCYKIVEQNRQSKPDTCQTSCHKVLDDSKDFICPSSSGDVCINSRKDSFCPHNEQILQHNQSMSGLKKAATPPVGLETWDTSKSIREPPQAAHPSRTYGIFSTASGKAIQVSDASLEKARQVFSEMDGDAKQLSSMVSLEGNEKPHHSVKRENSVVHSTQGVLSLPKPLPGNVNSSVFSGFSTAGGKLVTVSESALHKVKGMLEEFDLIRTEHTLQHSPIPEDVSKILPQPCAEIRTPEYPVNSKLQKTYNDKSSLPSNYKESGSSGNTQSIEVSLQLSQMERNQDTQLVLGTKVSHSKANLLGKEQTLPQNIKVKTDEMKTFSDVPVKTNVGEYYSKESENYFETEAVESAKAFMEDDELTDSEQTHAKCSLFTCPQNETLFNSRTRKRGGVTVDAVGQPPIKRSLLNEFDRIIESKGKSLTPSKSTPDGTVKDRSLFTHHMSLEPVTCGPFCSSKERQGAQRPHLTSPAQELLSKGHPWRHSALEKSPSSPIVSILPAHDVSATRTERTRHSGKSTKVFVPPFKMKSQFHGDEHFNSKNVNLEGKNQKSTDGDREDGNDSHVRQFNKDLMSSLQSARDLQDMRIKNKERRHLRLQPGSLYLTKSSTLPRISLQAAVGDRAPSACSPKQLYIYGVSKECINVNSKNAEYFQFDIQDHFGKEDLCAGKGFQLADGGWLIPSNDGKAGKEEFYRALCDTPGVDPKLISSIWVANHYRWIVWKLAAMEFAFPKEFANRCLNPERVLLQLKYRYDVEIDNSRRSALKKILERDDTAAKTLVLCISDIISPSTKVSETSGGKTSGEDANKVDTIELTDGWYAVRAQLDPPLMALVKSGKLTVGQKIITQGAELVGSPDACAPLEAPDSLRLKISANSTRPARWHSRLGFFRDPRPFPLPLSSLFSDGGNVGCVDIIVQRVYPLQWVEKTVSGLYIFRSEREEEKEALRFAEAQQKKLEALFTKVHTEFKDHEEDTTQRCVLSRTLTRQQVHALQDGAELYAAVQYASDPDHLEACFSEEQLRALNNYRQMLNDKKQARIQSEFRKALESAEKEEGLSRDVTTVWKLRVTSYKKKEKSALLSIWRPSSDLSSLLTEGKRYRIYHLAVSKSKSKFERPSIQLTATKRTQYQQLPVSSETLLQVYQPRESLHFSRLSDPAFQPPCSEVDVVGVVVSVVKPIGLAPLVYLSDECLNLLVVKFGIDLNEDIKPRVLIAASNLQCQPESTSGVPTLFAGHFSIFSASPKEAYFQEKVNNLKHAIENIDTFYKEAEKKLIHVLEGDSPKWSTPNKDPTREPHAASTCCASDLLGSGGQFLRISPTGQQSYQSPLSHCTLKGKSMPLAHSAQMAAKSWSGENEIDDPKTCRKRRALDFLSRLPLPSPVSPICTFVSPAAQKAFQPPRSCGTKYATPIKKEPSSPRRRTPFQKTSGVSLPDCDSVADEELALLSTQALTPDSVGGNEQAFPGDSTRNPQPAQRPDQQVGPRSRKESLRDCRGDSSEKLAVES
# [4] = target: the molecule itself; assay: SEC-MALS; free ARM; Superdex 200 10/300 GL; 25 mM Tris-HCl pH 7.5, 250 mM NaCl, 5 mM beta-mercaptoethanol; 0.8-1 mg/ml in 100 ul
# [5] = target: the molecule itself; assay: SEC-MALS + other: SEC-SAXS; ARM with F15X; SEC-MALS on Superdex 200 10/300 GL, SEC-SAXS on Bio SEC-3; 25 mM Tris-HCl pH 7.5, 250 mM NaCl, 5 mM beta-mercaptoethanol; tetramer = two ARM dimers with two F15X
# ARM domain of HSF2BP [6] = target: T1, ARM domain of HSF2BP; assay: 2D NMR 1H-15N HSQC of 15N-labeled F0 with ARM; assay type: binding; conditions: 15N-F0 100 μM, ARM 1:1, 950 MHz, 283 K, pH 7.0; region S2252-Q2342
# Experimental: (§2) For NMR analysis, ^15N-labeled or ^15N- and ^13C-labeled BRCA2 fragments were produced in E. coli BL21 DE3 Star cells grown in M9 medium containing either 0.5 g/l ^15NH4Cl or 0.5 g/l ^15NH4Cl and 2 g/l ^13C-glucose, respectively. […]
# (§3) The ^15N/^13C-labeled F0 fragment was analyzed by 3D heteronuclear NMR. in order to assign its Hn, N, Cα, Cβ, and Co chemical shifts, and identify its binding site to HSF2BP. Therefore, 3D NMR HNCA, CBCACONH, HNCACB, HNCANNH, HNCO, and HNCACO experiments were performed on a 700 MHz Bruker AVANCE NEO spectrometer equipped with a triple resonance cryogenic TCI probe at 283 K. The data were processed using Topspin 4.0 (Bruker) and analyzed using CCPNMR 2.4[49]. […] For binding studies, 2D NMR ^1H-^15N HSQC experiments were recorded on a 3-mm-diameter sample tube containing the ^15N-labeled F0 at 100 μM in the absence and presence of the ARM domain at 100 μM, on a 950 MHz Bruker Avance III spectrometer equipped with a triple resonance cryogenic TCI probe at 283 K.
# HSF2BP mutant R200T = assay: ITC of BRCA2 F0 with HSF2BP R200T; assay type: binding, human; conditions: ITC control
# Experimental: (§4) Human full-length HSF2BP WT and R200T were expressed using a pETM11 (6xHis-TEV) expression vector in E. coli BL21 DE3 Rosetta2 cells, and purified as previously reported (Brandsma et al., Cell Rep 2019). The armadillo domain of HSF2BP, from aa 122 to aa 334, which we will further name ARM, was similarly expressed using a pETM11 (6xHis-TEV) expression vector in BL21 DE3 Rosetta2 cells and purified as full-length HSF2BP.
# (§5) ITC experiments were performed using a high-precision VP-ITC instrument (GE Healthcare) at 293 K. To characterize the interactions between HSF2BP and BRCA2 fragments (WT, variants), the proteins were dialyzed against 25 mM Tris pH 7.5, 250 mM NaCl, 5 mM β-mercaptoethanol. The HSF2BP (or ARM domain) was in the sample cell at 10–20 μM and was titrated by BRCA2 fragments at 40–100 μM, using 10 μL injections with 210 s intervals between each injection. The first 2 μL injection was ignored in the final data analysis. The integration of the peaks corresponding to each injection. the correction for the baseline and the fit were performed using the Origin 7.0 software provided by the manufacturer, to obtain the stoichiometry (N), dissociation constant (Kd), and enthalpy of complex formation (ΔH) for each interaction. Two replicates were performed for each experiment.
# [7] = NMR chemical shift secondary structure analysis of F0; assay type: physicochemical, human; conditions: 50 mM Hepes pH 7.0, 50 mM NaCl, 283 K, 700 MHz
# Experimental: as §2, §3
# HSF2BP FL = target: T2, HSF2BP FL; assay: ITC of BRCA2 fragments with full-length HSF2BP; assay type: binding
# Excerpt: as §4
# (§6) Human BRCA2 fragment F0 was expressed using a pET-22b expression vector as a fusion protein comprising BRCA2 from aa 2213 to aa 2342 (including mutation C2332T to avoid oxidation problems), a TEV site, a GB1 and 6xHis tag, in E. coli BL21 DE3 Star cells. The BRCA2 gene was optimized for expression in bacteria and synthesized by Genscript. In addition, smaller BRCA2 fragments were produced using the same strategy: FNMR and F15X corresponding to aa 2252 to aa 2342 and aa 2291 to aa 2343, respectively. The smallest fragment F15X∆12, from aa 2312 to aa 2342, was synthesized by Genecust.
# as §5
# ARM domain of HSF2BP [8] = target: T1, ARM domain of HSF2BP; assay: ITC of BRCA2 fragments with HSF2BP armadillo domain; assay type: binding; conditions: for ΔG / −TΔS / ΔH (±error): 293 K
# Excerpt: as §4, §6, §5
# Sequence of mouse BRCA2-∆12 in Hsf2bp^GFP/GFP Brca2^∆12/∆12 mES cells (P97929 whole entry): as the sequence (P97929 whole entry, stated change not applied) above
molecule,measurement,setting,value
mouse BRCA2-∆12 in Hsf2bp^GFP/GFP Brca2^∆12/∆12 mES cells (from UniProt P97929 1-3329) (natural protein),percent loss of co-precipitation against wild-type BRCA2,[1],97 to 99%
"F16: Flag-tagged BRCA2 fragment 2270-2333 (protein, UniProt P51587 2270-2333, looked up, fragment, Flag tag) GKRRGEPLILVGEPSIKRNLLNEFDRIIENQEKSLKASKSTPDGTIKDRRLFMHHVSLEPITCV",interaction with H3 (co-precipitation),[2],same level of interaction
same,interaction with HSF2BP (co-precipitation),GFP-HSF2BP,reduced efficiency
"mouse HSF2BP, endogenous in mES cells (natural protein) MAATVGDGSGTEEACRNMESKEEFVKVRKKDLERLTTEVMQIRDFLPRILNGELLESFQKLKMVEKNLERKEQELEQLIMDREHFKARLETAQADSGREKKEKLALRQQLNEAKQQLLQQAEYCTQMGAVTCTLLWGVSSSEEVVKTILGGDKALKFFNITGQTMESFVKSLDGDVKEVDSDENQFVFALAGIVTNVAAIACGREFLVNSSRVLLDTMLQLLGDLKPGQCTKLKVLMLMSLYNVSINSKGLKYITESPGFIPLLWWLLSDPDAEVCLHTLRLIQSVVLEPDVFSKVASELQSSLPLQRILAMSKSRNSHLQSAAQELLEDLRALDCNV",percent loss of co-precipitation against full-length BRCA2-GFP,[3],95%
"armadillo domain of HSF2BP, from aa 122 to aa 334 (ARM) (domain or fragment, human, UniProt O75031 122-334, looked up, Free ARM is a dimer (SEC-MALS); four ARM with two F15X in the complex; A selenomethionine-labelled form was used for the deposited crystal structure; also called HSF2BP ARM; H3 (recombinant); source: E. coli BL21 DE3 Rosetta2, purified (HisTrap, TEV cleavage, SEC)) EMGAAACTLLWGVSSSEEVVKAILGGDKALKFFSITGQTMESFVKSLDGDVQELDSDESQFVFALAGIVTNVAAIACGREFLVNSSRVLLDTILQLLGDLKPGQCTKLKVLMLMSLYNVSINLKGLKYISESPGFIPLLWWLLSDPDAEVCLHVLRLVQSVVLEPEVFSKSASEFRSSLPLQRILAMSKSRNPRLQTAAQELLEDLRTLEHNV",stoichiometry N,[4],2
same,stoichiometry N,[5],4
"F0: Human BRCA2 fragment aa 2213 to aa 2342 including mutation C2332T, recombinant (protein, left off: GB1, C-terminal, cleaved | His6, C-terminal, cleaved, Human BRCA2 fragment aa 2213 to aa 2342 including mutation C2332T, recombinant) STYSKDSENYFETEAVEIAKAFMEDDELTDSKLPSHATHSLFTCPENEEMVLSNSRIGKRRGEPLILVGEPSIKRNLLNEFDRIIENQEKSLKASKSTPDGTIKDRRLFMHHVSLEPITTVPFRTTKERQ",HSQC peak intensity ratio (with ARM / free),ARM domain of HSF2BP [6],lower than 0.4
same,binding,HSF2BP mutant R200T,does not bind
same,"transient α-helix population, region N2291-S2303",[7],about 25%
same,ΔG,"HSF2BP FL; 293 K, pH 7.5, expt 1",-11.8 kcal/mol
same,−TΔS,"HSF2BP FL; 293 K, pH 7.5, expt 1",-0.8 kcal/mol
same,ΔH (±error),"HSF2BP FL; 293 K, pH 7.5, expt 1, error in brackets",−11.0 (0.1) kcal/mol
same,−TΔS,"HSF2BP FL; 293 K, pH 7.5, expt 2",-1.0 kcal/mol
same,ΔH (±error),"HSF2BP FL; 293 K, pH 7.5, expt 2, error in brackets",−10.9 (0.1) kcal/mol
same,stoichiometry,HSF2BP FL; BRCA2 peptide per HSF2BP,0.5
same,affinity ratio HSF2BP vs ARM,HSF2BP FL; HSF2BP binds tighter to F0 than does ARM,about 25 -fold
same,ΔG,"ARM domain of HSF2BP [8]; pH 7.5, expt 1",-10 kcal/mol
same,−TΔS,"ARM domain of HSF2BP [8]; pH 7.5, expt 1",-1.7 kcal/mol
same,ΔH (±error),"ARM domain of HSF2BP [8]; pH 7.5, expt 1, error in brackets",−8.3 (0.2) kcal/mol
same,ΔG,"ARM domain of HSF2BP [8]; pH 7.5, expt 2",-10.1 kcal/mol
same,−TΔS,"ARM domain of HSF2BP [8]; pH 7.5, expt 2",1.8 kcal/mol
same,ΔH (±error),"ARM domain of HSF2BP [8]; pH 7.5, expt 2, error in brackets",−11.9 (0.2) kcal/mol
same,stoichiometry,ARM domain of HSF2BP [8]; one BRCA2 peptide binds to two ARM,0.5

# — paper PMC8322138, “BRCA2 binding through a cryptic repeated motif to HSF2BP oligomers does not impact meiotic recombination” (Nature Communications, 2021)
